One assay has as its target T1, 4H932-bH.
T1 chain: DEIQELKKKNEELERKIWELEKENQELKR
Briefly: two-hybrid library CCNG1.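 Further: natural log of median RNA to DNA barcode read ratio; higher means stronger binding.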

A further assay concerns the target T2, 4H949-bH.
T2 chain: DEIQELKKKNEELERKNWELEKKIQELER
Description: two-hybrid library CCNG1.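 Further: natural log of median RNA to DNA barcode read ratio; higher means stronger binding.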

For the next assay, the target named is T3, 4H3041-bH.
T3 chain: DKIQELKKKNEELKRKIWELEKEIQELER
Briefly: two-hybrid library CCNG1.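 Further: natural log of median RNA to DNA barcode read ratio; higher means stronger binding.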

The next assay concerns the target T4, 4H3381-bH.
T4 chain: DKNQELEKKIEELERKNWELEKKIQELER
Description: two-hybrid library CCNG1.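 Further: natural log of median RNA to DNA barcode read ratio; higher means stronger binding.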

The target in a further assay is T5, 4H349-bH.
T5 chain: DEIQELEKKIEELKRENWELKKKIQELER
Description: two-hybrid library CCNG1.

The next assay has as its target T6, 4H3297-bH.
T6 chain: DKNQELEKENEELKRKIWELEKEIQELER
Description: two-hybrid library CCNG1.

A further assay concerns the target T7, 4H730-bH.
T7 chain: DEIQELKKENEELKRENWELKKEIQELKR
Description: two-hybrid library CCNG1.

Another assay addresses T8, 4H796-bH.
T8 chain: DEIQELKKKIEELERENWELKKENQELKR
Briefly: two-hybrid library CCNG1.

The target in a further assay is T9, 4H3364-bH.
T9 chain: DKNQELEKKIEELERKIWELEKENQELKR
Briefly: two-hybrid library CCNG1.

In a further assay the target is T10, 4H56-bH.
T10 chain: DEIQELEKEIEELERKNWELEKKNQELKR
Description: two-hybrid library CCNG1.

The next assay has as its target T11, O8.
T11 chain: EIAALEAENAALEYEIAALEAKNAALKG
Description: two-hybrid library CC0. Conditions: mean of both orientations.

The target in the next assay is T12, O9.
T12 chain: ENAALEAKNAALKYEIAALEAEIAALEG
Description: two-hybrid library CC0. Particulars: mean of both orientations.

For another assay, the target named is T13, 4H319-bA.
T13 chain: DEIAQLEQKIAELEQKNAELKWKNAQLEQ
Briefly: two-hybrid library CCNG1.

The target in a further assay is T14, 4H348-bA.
T14 chain: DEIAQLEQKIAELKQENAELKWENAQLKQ
Briefly: two-hybrid library CCNG1.

The target of a further assay is T15, 4H477-bA.
T15 chain: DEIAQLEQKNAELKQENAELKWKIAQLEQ
Briefly: two-hybrid library CCNG1.

A further assay deals with T16, 4H741-bA.
T16 chain: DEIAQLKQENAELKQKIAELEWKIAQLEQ
Briefly: two-hybrid library CCNG1.

The target of the next assay is T17, 4H40-bA.
T17 chain: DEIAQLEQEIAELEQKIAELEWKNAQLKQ
Description: two-hybrid library CCNG1.

The target of another assay is T18, 4H3277-bA.
T18 chain: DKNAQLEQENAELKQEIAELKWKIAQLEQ
Description: two-hybrid library CCNG1.

A further assay concerns the target T19, 4H492-bA.
T19 chain: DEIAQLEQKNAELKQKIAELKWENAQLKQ
Briefly: two-hybrid library CCNG1.

A further assay deals with T20, 4H327-AA.
T20 chain: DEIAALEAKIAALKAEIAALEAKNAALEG
Description: two-hybrid library CCmax.

The next assay deals with T21, 4H3922-AA.
T21 chain: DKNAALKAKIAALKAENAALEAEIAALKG
Description: two-hybrid library CCmax. Particulars: mean of both orientations.

A further assay deals with T22, 4H4033-AA.
T22 chain: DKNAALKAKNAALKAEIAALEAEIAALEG
Briefly: two-hybrid library CCmax. Particulars: mean of both orientations.

In a further assay the target is T23, 4H3664-AA.
T23 chain: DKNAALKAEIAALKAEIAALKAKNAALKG
Briefly: two-hybrid library CCmax. Particulars: mean of both orientations.

The next assay has as its target T24, 4H369-AA.
T24 chain: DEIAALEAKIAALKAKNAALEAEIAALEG
Description: two-hybrid library CCmax. Particulars: mean of both orientations.

Another assay deals with T25, 4H3605-AA.
T25 chain: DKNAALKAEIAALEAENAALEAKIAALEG
Briefly: two-hybrid library CCmax. Conditions: mean of both orientations.

For the next assay, the target named is T26, 4H3625-AA.
T26 chain: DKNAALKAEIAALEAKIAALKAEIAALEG
Briefly: two-hybrid library CCmax. Particulars: mean of both orientations.

Another assay concerns the target T27, 4H481-AA.
T27 chain: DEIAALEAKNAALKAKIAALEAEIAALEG
Briefly: two-hybrid library CCmax. Particulars: mean of both orientations.

In a further assay the target is T28, 4H55-AA.
T28 chain: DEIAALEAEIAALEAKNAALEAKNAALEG
Description: two-hybrid library CCmax. Particulars: mean of both orientations.

A further assay concerns the target T29, 4H662-AA.
T29 chain: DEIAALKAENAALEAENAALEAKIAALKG
Briefly: two-hybrid library CCmax. Particulars: mean of both orientations.

Results on four molecules are retold here after article PMC10397247.

As for DKIQELKKKNEELKRKIWELEKEIQELER [4H3041-bH], the interaction score with 4H932-bH is -0.092; with 4H949-bH, -0.161; in the assay with 4H3041-bH it was 0.721; with 4H3381-bH, -0.693; with 4H349-bH, -0.833; in the assay with 4H3297-bH, 0.592. For the same molecule, the interaction score with 4H730-bH was -0.877; with 4H796-bH, -0.497; with 4H3364-bH, -1.08; with 4H56-bH it was 0.679.
For EIAALEAENAALEYEIAALEAKNAALKG [O8], the interaction score with O8 is -2.62; with O9, -2.53.
In the case of DEIAQLEQKIAELEQKNAELKWKNAQLEQ [4H319-bA], the interaction score is -0.125 with 4H319-bA; -0.881 with 4H348-bA; -0.399 with 4H477-bA; -0.873 with 4H741-bA; -0.44 in the assay with 4H40-bA; -0.964 in the assay with 4H3277-bA. Besides, the interaction score in the assay with 4H492-bA is -1.05.
On to DEIAALEAKIAALKAEIAALEAKNAALEG [4H327-AA], for which the interaction score in the assay with 4H327-AA was 1.84; with 4H3922-AA, 0.621; with 4H4033-AA, 0.297; in the assay with 4H3664-AA, 0.733; with 4H369-AA, -0.747; with 4H3605-AA it was -1.29. Moreover, the interaction score with 4H3625-AA is 1.3; with 4H481-AA it was -0.644; with 4H55-AA, -0.319; with 4H662-AA, -1.42.
